{
  "source": "patent US20220144895A1",
  "about": "“DE NOVO DESIGN OF TUNABLE PH-DRIVEN CONFORMATIONAL SWITCHES” (University of Washington, priority 2019, published 2022)",
  "key": {"[1]": {"experiment": "Native mass spectrometry of pH-induced changes in oligomeric state", "type": "physicochemical", "details": "for pH transition point of disassembly (pH set point, pH0): evaluated from pH 7 down to pH 3; for reversibility of disassembly: pH lowered with acetic acid, then raised by ammonia or buffer exchange; for cooperativity of the pH-induced transition: native MS at different pH values", "method": "Samples were buffer exchanged twice into 200 mM ammonium acetate (NH4Ac; MilliporeSigma) using Micro Bio-Spin P-6 columns (Bio-Rad). Protein concentrations were determined by UV absorbance using a Nanodrop 2000c spectrophotometer (Thermo Fisher Scientific) and diluted to make up a 10-fold stock solution (50 μM and 16.7 μM monomer and trimer concentration, respectively). 1 μL of this solution was mixed with 9 μL 200 mM NH4Ac/50 mM triethylammonium acetate (TEAA; MilliporeSigma), adjusted with acetic acid (Fisher Scientific) to obtain the desired final pH and incubated on ice for 30 min. […] 5 μL samples were filled into an in-house pulled glass capillary and ionized by nESI at a monomer or a trimer concentration of 5 μM or 1.67 μM respectively. All pH titration data were acquired on an in-house modified SYNAPT® G2 HDMS (Waters Corporation) with a surface-induced dissociation (SID) device incorporated between a truncated trap traveling wave ion guide and the ion mobility cell (39). The following instrument parameters were used spray voltage 0.9-1.3 kV; sampling cone, 20 V; extraction cone, 2 V; source temperature, room temperature; trap gas flow, 4 mL/min; trap bins, 45V. The data were processed with MassLynx™ v4.1 and DriftScope™ v2.1. For relative quantification, charge state series were extracted from DriftScope™, and smoothed spectra (mean; window 20; number of smooths 20) were integrated.\nPython scripts were written to generate theoretical models according Equation 1, and curve-fitting to native mass spectrometry data (FIGS. 1, 3, 5) according to Equation 2 by nonlinear least squares using curve fit from scipy.optimize. The free energy estimates for individual n, m, and l layers used in Equation 1 modeling were estimated by solving linear equations as follows: values for the free energy of folding for designs pRO-2 and variants were estimated from GdmCl denaturation experiments (FIG. 11); each of these designs have different numbers of n, m, and l layers, thus series of linear equations relating the number of each layer type to the total free energies of folding were solved to estimate dG values of the individual layers of each type."}, "[2]": {"experiment": "Fluorescence dequenching liposome leakage (liposome disruption) assay", "type": "biochemical", "method": "Liposomes composed of DOPC (1,2-dioleoyl-sn-glycero-3-phosphocholine), DOPC with 25% cholesterol (molar ratio to DOPC), 3:1 DOPC:POPS (1-palmitoyl-2-oleoyl-sn-glycero-3-phospho-L-serine), and 3:1 DOPC:POPS with 25% cholesterol were prepared identically to a final concentration of 5 mM total lipid as previously described (32); lipids from Avanti Polar Lipids. Lipids solubilized in chloroform were dried under nitrogen gas and stored under vacuum for a minimum of 2 hours to remove residual solvent. The dried lipid film was the resuspended in Tris buffer (10 mM Tris, 150 mM NaCl, and 0.02% NaN3 pH 8.0) containing 25 mM Sulforhodamine B (SRB) fluorophore (Sigma) and subjected to 10 sequential freeze thaw cycles in liquid nitrogen. Liposomes were extruded 29 times through 100 nm pore size polycarbonate filters (Avanti Polar Lipids) and purified from free fluorophore using a PD-10 gel filtration column (GE Healthcare) into storage buffer (10 mM Tris, 150 mM NaCl, and 0.02% NaN3 pH 8.0). Liposome size and homogeneity was analyzed by dynamic light scattering (DLS) using a Dynapro Nanostar™ DLS (Wyatt Technologies). On average liposome diameter ranged from 120-130 nm with low polydispersity. Liposomes were stored at 4° C. and used within 5 days of preparation.\nLiposome disruption and content leakage was analyzed by fluorescence spectroscopy as previously described (32). […] The solution was rapidly acidified to the target pH by addition of a fixed volume of acidification buffer and incubated for 20 minutes. […] SRB fluorescence is independent of pH within the ranges used here. Finally. Triton X-100 (Sigma) was added to a final concentration of 1% to fully disrupt liposomes. Liposome disruption as indicated by content leakage and SRB dequenching was normalized using the formula [Fω−F(0)]/[F(Max)−F(0)] where F(0) is the average fluorescence intensity before acidification and F(Max) is the average fluorescence intensity ater addition of Triton X-100. All measurements were collected on a Varian Cary Eclipse spectrophotometer using an excitation/emission pairing of […] and 2.5 nm slit widths at 24° C. Any data plotted together was collected using the sum batch of liposomes."}},
  "note": "Entries after “also recorded” stand apart in the source; their conditions may differ.",
  "data": [
    {"molecule": "pRO-2.1: pRO-2 variant, SEQ ID NO: 3-4 (protein) chain 1: MGSHHHHHHGSGSENLYFQGSEYEIRKALEELKAALAELKRATASLRAITEELKKNPSEDALVEHNRAIVEHNAIIVEVLRIIAAVLELIVRAIK chain 2: SEYEIRKALEELKAALAELKRATASLRAITEELKKNPSEDALVEHNRAIVEHNAIIVEVLRIIAAVLELIVRAIK", "values": [
      {"measurement": "pH transition point of disassembly (pH set point, pH0)", "setting": "[1]; native MS", "value": "~3.5", "unit": "pH"}
    ]},
    {"molecule": "pRO-2.3: pRO-2 variant, SEQ ID NO: 7-8 (protein) chain 1: MGSHHHHHHGSGSENLYFQGSEYEIRKALEELKASTAELKRATASLRAITEELKKNPSEDALVEHNRAIVEHNAIIVENNRIIAAVLELIVRAIK chain 2: SEYEIRKALEELKASTAELKRATASLRAITEELKKNPSEDALVEHNRAIVEHNAIIVENNRIIAAVLELIVRAIK", "values": [
      {"measurement": "reversibility of disassembly", "setting": "[1]", "value": "Re-association was induced"}
    ]},
    {"molecule": "pRO-2.2: pRO-2 variant, SEQ ID NO: 5-6 (protein) chain 1: MGSHHHHHHGSGSENLYFQGSEYEIRKALEELKAALAELKRATASLRAILEELKKNPSEDAIVEAIRAIVEHNAIIVEVLRIIAAVLELIVRAIK chain 2: SEYEIRKALEELKAALAELKRATASLRAILEELKKNPSEDAIVEAIRAIVEHNAIIVEVLRIIAAVLELIVRAIK", "values": [
      {"measurement": "pH response of oligomeric state (pH-induced disassembly)", "setting": "[1]; native MS, pH ~7 to ~3", "value": "eliminates the pH response altogether; also recorded: no significant pH response"}
    ]},
    {"molecule": "pRO-2.4: pRO-2 variant, SEQ ID NO: 9-10 (protein) chain 1: MGSHHHHHHGSGSENLYFQGSEYEIRKALEELKAATAELKRATASLRASTEELKKNPSEDALVENNRLIVEHNAIIVEHNRIIAAVLELIVRAIK chain 2: SEYEIRKALEELKAATAELKRATASLRASTEELKKNPSEDALVENNRLIVEHNAIIVEHNRIIAAVLELIVRAIK", "values": [
      {"measurement": "cooperativity of the pH-induced transition", "setting": "[1]", "value": "less cooperative"},
      {"measurement": "pH transition point of disassembly (pH set point, pH0)", "setting": "[1]; native MS", "value": "higher transition pH"},
      {"measurement": "reversibility of disassembly", "setting": "[1]", "value": "Re-association was induced"}
    ]},
    {"molecule": "pRO-4: designed heterodimer, SEQ ID NO: 27-28, chains 81 and 82 (protein, Synthetic polpypeptide; (1)..(18) Optional residues) chain 1: MDEEDHLKKLKTHLEKLERHLKLLEDHAKKLEDILKERPEDSAVKESIDELRRSIELVRESIEIFRQSVEEEEGSSHHHHHHSSGENLYFQGDVKELTKILDTLTKILETATKVIKDATKLLEEHRKSDKPDPRLIETHKKLVEEHETLVRQHKELAEEHLKRTR chain 2: MDEEDHLKKLKTHLEKLERHLKLLEDHAKKLEDILKERPEDSAVKESIDELRRSIELVRESIEIFRQSVEEEEGDVKELTKILDTLTKILETATKVIKDATKLLEEHRKSDKPDPRLIETHKKLVEEHETLVRQHKELAEEHLKRTR chain 3: MDEEDHLKKLKTHLEKLERHLKLLEDHAKKLEDILKERPEDSAVKESIDELRRSIELVRESIEIFRQSVEEEE chain 4: GSSHHHHHHSSGENLYFQGDVKELTKILDTLTKILETATKVIKDATKLLEEHRKSDKPDPRLIETHKKLVEEHETLVRQHKELAEEHLKRTR", "values": [
      {"measurement": "pH transition point of disassembly (pH set point, pH0)", "setting": "[1]; native MS", "value": "~4", "unit": "pH"}
    ]},
    {"molecule": "pRO-4 L23A/V130A: pRO-4 mutant heterodimer, SEQ ID NO: 29-30, 83-84 (protein, Synthetic polpypeptide; (1)..(18) Optional residues) chain 1: MDEEDHLKKLKTHLEKLERHLKLAEDHAKKLEDILKERPEDSAVKESIDELRRSIELVRESIEIFRQSVEEEEGSSHHHHHHSSGENLYFQGDVKELTKILDTLTKILETATKVIKDATKLLEEHRKSDKPDPRLIETHKKLVEEHETLARQHKELAEEHLKRTR chain 2: MDEEDHLKKLKTHLEKLERHLKLAEDHAKKLEDILKERPEDSAVKESIDELRRSIELVRESIEIFRQSVEEEEGDVKELTKILDTLTKILETATKVIKDATKLLEEHRKSDKPDPRLIETHKKLVEEHETLARQHKELAEEHLKRTR chain 3: MDEEDHLKKLKTHLEKLERHLKLAEDHAKKLEDILKERPEDSAVKESIDELRRSIELVRESIEIFRQSVEEEE chain 4: GSSHHHHHHSSGENLYFQGDVKELTKILDTLTKILETATKVIKDATKLLEEHRKSDKPDPRLIETHKKLVEEHETLARQHKELAEEHLKRTR", "values": [
      {"measurement": "pH transition point of disassembly (pH set point, pH0)", "setting": "[1]; native MS", "value": "~4.6", "unit": "pH"}
    ]},
    {"molecule": "SEQ ID NO: 38: similar to pRO2.3, TEV site parallel to the termini, aromatic residues on the n-terminal helix (protein) GSEEEIKRLLEELRKSSEELRRITKELDDLSKELRVGGSGSGSEMLVEHNKLISEHNRIIVENNRIIVEILEAIARVGGSGSGSVEVERILDELRKSSEELDRVTKELKKLTEELDVGGSGSGSVEALVRHNVLITRHNDIIVKNNDIINKILKLIGEAVGGSENLYFQGSGSEFERWLRQLEESTKELRKFTEELRRFSEELKVGGSGSGSVEALVRHNEAIVEHNKAIVKNNDIIVKILELVTERI", "values": [
      {"measurement": "liposome disruption better than the pRO2.3 homotrimer", "setting": "[2]; compared with pRO2.3 homotrimer", "value": "5-10%"}
    ]},
    {"molecule": "SEQ ID NO: 37: pRO2.3, single-chain, GS linkers on all loops, asymmetrized, TEV site opposite to the termini direction (protein) GSEEEIKRLLEELRKSSEELRRITKELDDLSKELRVGGSGSGSEMLVEHNKLISEHNRIIVENNRIIVEILEAIARVGGSGSGSVEVERILDELRKSSEELDRVTKELKKLTEELDVGGSENLYFQGSGSVEALVRHNVLITRHNDIIVKNNDIINKILKLIAEAVGGSGSGSELERILRELEESTKELRKATEELRRLSEELKVGGSGSGSVEALVRHNEAIVEHNKIIVKNNDIIVKILELITERI", "values": [
      {"measurement": "liposome disruption relative to pRO2.3, nanoparticle fusion", "setting": "[2]; fused at its n-terminus to a nanoparticle", "value": "as well as pRO2.3"},
      {"measurement": "kinetics of dissociation in the liposome assay", "setting": "[2]; linked-pH trimer", "value": "slower"},
      {"measurement": "membrane disruption level (dye leakage over time)", "setting": "[2]; linked-pH trimer, order of minutes", "value": "same membrane disruption levels"}
    ]},
    {"molecule": "pRO-2.3-GS: pRO-2.3 with flexible GS loop, SEQ ID NO: 35-36 (protein) chain 1: MGSHHHHHHGSGSENLYFQGSEYEIRKALEELKASTAELKRATASLRAITEELKKGGSGSGSEDALVEHNRAIVEHNAIIVENNRIIAAVLELIVRAIK chain 2: GSEYEIRKALEELKASTAELKRATASLRAITEELKKGGSGSGSEDALVEHNRAIVEHNAIIVENNRIIAAVLELIVRAIK", "values": [
      {"measurement": "oligomeric state at pH 7 / neutral pH", "setting": "[1]; native MS", "value": "retains its trimeric assembly at neutral pH"},
      {"measurement": "cooperativity of the pH-induced transition", "setting": "[1]", "value": "less cooperativity"}
    ]},
    {"molecule": "pRO-2-GS: pRO-2 with flexible GS loop, SEQ ID NO: 33-34 (protein) chain 1: MGSHHHHHHGSGSENLYFQGSEYEIRKALEELKAATAELKRATASLRAITEELKKGGSGSGSEDALVEHNRAIVEHNAIIVEHNRIIAAVLELIVRAIK chain 2: GSEYEIRKALEELKAATAELKRATASLRAITEELKKGGSGSGSEDALVEHNRAIVEHNAIIVEHNRIIAAVLELIVRAIK", "values": [
      {"measurement": "oligomeric state at pH 7 / neutral pH", "setting": "[1]; native MS", "value": "loses its homogenous trimeric assembly at neutral pH"}
    ]}
  ]
}
